Results from PMC8203779, “Distinct mechanisms of the human mitoribosome recycling and antibiotic resistance” (Nature Communications, 2021).

Target: mitoribosomal protein uL12m (39S subunit, L10-L12 stalk) (human (endogenous in HEK293S GnTI), UniProt P52815 37-198)
Assay: cryo-EM structure; model PoTC (150 nM 55S mitoribosomes + 50 uM puromycin, 10 min 37 °C) with 15 uM RRFmt (5 min 37 °C), then 5 uM EF-G2mt + 200 uM GMPPCP (5 s, 30 s, 2 min, 37 °C), HEPES polymix buffer pH 7.5; single-particle classes: Class I 55S•RRFmt, Class II 55S•RRFmt•EF-G2mt•GMPPCP, Class III 39S•RRFmt•EF-G2mt•GMPPCP
Conditions: both partners purified

binding result: binds
B1: human EF-G2mt (recycling-specific mitochondrial homolog of elongation factor G) (natural protein)
chain: MLTNLRIFAMSHQTIPSVYINNICCYKIRASLKRLKPHVPLGRNCSSLPGLIGNDIKSLHSIINPPIAKIRNIGIMAHIDAGKTTTTERILYYSGYTRSLGDVDDGDTVTDFMAQERERGITIQSAAVTFDWKGYRVNLIDTPGHVDFTLEVERCLRVLDGAVAVFDASAGVEAQTLTVWRQADKHNIPRICFLNKMDKTGASFKYAVESIREKLKAKPLLLQLPIGEAKTFKGVVDVVMKEKLLWNCNSNDGKDFERKPLLEMNDPELLKETTEARNALIEQVADLDDEFADLVLEEFSENFDLLPAEKLQTAIHRVTLAQTAVPVLCGSALKNKGIQPLLDAVTMYLPSPEERNYEFLQWYKDDLCALAFKVLHDKQRGPLVFMRIYSGTIKPQLAIHNINGNCTERISRLLLPFADQHVEIPSLTAGNIALTVGLKHTATGDTIVSSKSSALAAARRAEREGEKKHRQNNEAERLLLAGVEIPEPVFFCTIEPPSLSKQPDLEHALKCLQREDPSLKVRLDPDSGQTVLCGMGELHIEIIHDRIKREYGLETYLGPLQVAYRETILNSVRATDTLDRTLGDKRHLVTVEVEARPIETSSVMPVIEFEYAESINEGLLKVSQEAIENGIHSACLQGPLLGSPIQDVAITLHSLTIHPGTSTTMISACVSRCVQKALKKADKQVLEPLMNLEVTVARDYLSPVLADLAQRRGNIQEIQTRQDNKVVIGFVPLAEIMGYSTVLRTLTSGSATFALELSTYQAMNPQDQNTLLNRRSGLT
notes: mitochondrial elongation factor G2 (EF-G2mt), human, 87 kD; contact residues up to Leu778 are printed; Cloned into pGEX6.1; also called EF-G2mt-GMPPCP; source: Rossetta (pLysS + RARE) cells, purified (GSTrap HP, GST cleaved with 3C protease, HiTrap Q HP)
